The first series addresses T1, SAV4189 (His6-SAV4189) (Streptomyces avermitilis, UniProt Q82FR3).
T1 construct: gene SAVERM_4189; full-length, 171 residues (516-bp CDS), His6-tagged from pET-28a(+) (NdeI/EcoRI), E. coli BL21(DE3), Ni-NTA; tag removal not mentioned; MarR family said to be generally homodimeric
T1 sequence (Q82FR3 1-171): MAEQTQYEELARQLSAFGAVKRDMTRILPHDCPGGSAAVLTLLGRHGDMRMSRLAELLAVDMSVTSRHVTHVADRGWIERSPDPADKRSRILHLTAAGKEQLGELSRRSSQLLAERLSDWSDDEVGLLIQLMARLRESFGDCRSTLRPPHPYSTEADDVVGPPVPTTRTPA
As to the kind of experiment: EMSA, release of SAV4189 from DIG-labelled promoter probe […]p. Format: binding. To be noted: 62.5 nM His6-SAV4189, antibiotic in water. A general note: A gel shift assay detects complexes by their altered migration in electrophoresis.
As to `CN[C@H]1C[C@@H](N)[C@H](O)[C@@H](O[C@@H]2O[C@H](CO)[C@H](O)[C@@H]3OC4(O[C@H]23)O[C@H]([C@@H](N)CO)[C@H](O)[C@H](O)[C@H]4O)[C@@H]1O` (stereo partly drawn) [HygB, hygromycin B], the “EMSA, release of SAV4189 from DIG-labelled promoter probe 4189p” value is “SAV4189-4189p complex was disrupted in dose-dependent manner by exogenous HygB and Thi”.

Another series concerns T2, His6-SAV4189 (Streptomyces avermitilis), ORF:1042fb45.
T2 sequence: T1 sequence (Q82FR3 1-171)
Briefly: competition. To be noted: EMSA as in Luo et al. 2014 (buffer not given), 0.15-0.3 nM DIG probe; footprinting 400 ng probe in 25 ul, 30 min at 25 C.
Take “CATCACACCTCCCGTATTCGTTGCTTAGGGCAACCATAGGAAAGTTGGTTGCCGCAGGCAAACTAAATAGGGTCTTCAGGGATAAAAACTTGGCAAAGGCAAGTATTGGCAGGCGTAAAGCCGCAGGTGGGGAGGTCAGGAGCGGTCG (double strand) [4189p]”: the binding result is “binds”. For the compound “TTGATGACCTCGACCATGTGCACCGGGATACGGATGGTGCGGGCCTGGTCGGCCATGGCGCGGGTGATCGCCTGACGGATCCACCAGGTGGCGTACGTGGAGAACTTGTAGCCCTTGG (double strand) [hrdB]”, the binding result was “no binding”.

The next series has the same test system. As to the kind of experiment: EMSA. To be noted: EMSA as in Luo et al. 2014 (buffer not given), 0.15-0.3 nM DIG probe; footprinting 400 ng probe in 25 ul, 30 min at 25 C.
On to “CGTGTTCACTTCAGAAACCTCCCTGACGAGGCCGCGACGTTGCGGCCGAGGTGGCTGGAAGTCAACTCGGCCACACGTGCGACGTCAAGAAGTAAATACTTAACGAGATGGCAACGGTGCCATGCGTTCTCTAAGTGAAGGCAGGGGTGGCCGCGGAAAGCGTGCCATCCAAAAGGGTCGAATCGCCCATCTCGCTCAACGCGAGAGCGAGCGCTCCGAGCACCTCGGCGCGGCCCCCAAGTGCCCCTGGAAGCACCGAGAGTTGAC (double strand) [xylFp]”, for which the binding result is “no binding”.

For the compound “CATCACACCTCCCGTATTCGTTGCTTAGGGCAACCATAGGAAAGTTGGTTGCCGCAGGCAAACTAAATAGGGTCTTCAGGGATAAAAACTTGGCAAAGGCAAGTATTGGCAGGCGTAAAGCCGCAGGTGGGGAGGTCAGGAGCGGTCG (double strand) [4189p]”, the binding result was “binds”.

On to “TCATGGGATCTCCGGTGCCGAAGAGGGGACGAGAGCCACTCGGATTTTCTATGGTTAGGCTTACCTAAGTCAACGGGTTCCCGACATCCCGTCGGTAAAATCGTACCCCCGATTCCGATCAAGCCCACAGGAAAAGCCCGCCCCCCGAAGGGAGCGGGCTTTCGCGCGGCGGGCGGGACTACGGCAGCGTCAGGATGTCCGCCCCGCTGTCCGT (double strand) [hmuOp]”, for which the binding entry is on record as “binds”.

Turning to “TGACCCCTCCCGCCACTTCCCCCGGCACTTTCCATCGCTTCTCGCCGTGAATTGCAGAGATTCCCCACACACTTATCCCGTTATTAATTCAGAACAGCTTCCCGCATTCTTCTGCCCGCTTTCTTTCGTGCTAAACGCAAAGATTTCGCGAACACCAACCGGCTTAATTCGGGCAGGTCCCGCACGGGTCGTCCACTTGTGATCGACTCCACATCGCACCCCTTTCCTCCCGTATTTTCCGGACAAAATGGGGGTTATCGACGC (double strand) [ectAp]”, the binding entry is reported as “binds”. Regarding “TCCGGACTTGACTGATCTCGACAGTACTTGGCGCACTTGGCCCACTTGGGATCATTGCGGCGGTTGTTACCGCCCGTAAAGCACCATAAGCGCAGCGGGCGGGAGTTCAAACCCGATCAGCTTGGATAAGGTAAGCCTTACCTGTCAACGATCGTGAAGTCGGTGGTCCCCGCATGCCCTCGCCCGTCGCGGATGCCTACGCAAGGCTGACCGA (double strand) [2073p]”, the binding entry is on record as “binds”. On the same count and under the same terms, the value for “TTGATGACCTCGACCATGTGCACCGGGATACGGATGGTGCGGGCCTGGTCGGCCATGGCGCGGGTGATCGCCTGACGGATCCACCAGGTGGCGTACGTGGAGAACTTGTAGCCCTTGG (double strand) [hrdB]” was “no binding”; that for “GACTGCCGGAACTCCATGCGCTGTGCCCTCCGGTTCGTGGTGTTACTTGGTTTTACCAAGTCAGAGCTTGGAAAGTCCAACAACATGTCTAGACTGCGTCGCATGCCACCTCGCCGAAGCTACGACCAGTACTGTTCCGCGGCCCGAGCCCTCGACGCCGTCGGTGACCGCTGGACCCTCCTGATCGTCCG (double strand) [aspB1p]” was “binds”; that for “GACGACTCATATGCGGCAGGCCCTCCCCAGGACGTCGACAGCCGAAAGGCCTTTGGTTGTCCCCACAACCAGTTGTGACGAGACGACTCTATCCAGCAATCGCCCTCCCGCATATCCACTCGTCAAAGGCAACCCTCTCGGGCCATCTGTGCAGGTCAAGTGACCGGAGGGTAGCTAAGACCGTACCGCGCGGCAGTGCCCGAGCGGTGCGGCCTTGGCAACGTTGATC (double strand) [savR1p]” was “no binding”.

As to “AATTGCTGGCCGAAGCCCGCGCGGGTGTGCAGGTCTGAAACCGCCGGGGGTGAGGTTAGGGGGGTGGGAAAACCTAGGGGTTGGTCCCCGGGGTGGCGCCGGATAGTGTCGAAACGGCTGAAACAGCATTACTGGAGCGGTTGAGAAAAGCAATCCCAGATTCTGTGCCAACGCGGGGAGAACGAGTGGAACTGGCGGATTCCGGCGACCTTTTGGAAATATTCGAGCGTACCGAGGAAATGGCGCGGCTCGCGCATGTGCTGGCGAGTGCCGGACAGGGCGAAGGCGGTGTGGTCCTCG (double strand) [olmRIIp]”, the binding result is given as “binds”.

Values taken from paper PMC6036246, “SAV4189, a MarR-Family Regulator in Streptomyces avermitilis, Activates Avermectin Biosynthesis” (Frontiers in Microbiology, 2018).
